This note sets out measurements from patent US20220162320A1 (published 2022).

In assay [1] the target is T1, CD3 (reagent of the affinity experiments of Example 18) (UniProt P07766 23-126).
T1 chain: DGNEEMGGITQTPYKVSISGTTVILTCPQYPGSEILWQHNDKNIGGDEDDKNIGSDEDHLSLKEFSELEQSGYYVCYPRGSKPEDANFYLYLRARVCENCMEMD
The experiment in a line: BLI. (BLI is a label-free optical method that tracks binding on a fibre tip over time.)

The target of assay [2] is T2, HLA-PEPTIDE target G2: HLA-A*01:01_…, recombinant soluble complex (human, enzymatically biotinylated (BirA)). The experiment in a line: BLI.
For assay [3], the target named is T2, HLA-PEPTIDE target G2: HLA-A*01:01_…, …. The assay is described as follows: BLI; apparent KD (bivalent), avid.

B1: 4-G2(1H11)-hOKT3 (bispecific antibody)
chain: not shown
heavy: QVQLVQSGAEVKKPGASVKVSCKASGYTFTNYYMHWVRQAPGQGLEWMGMINPSGGGTSYAQKFQGRVTMTRDTSTSTVYMELSSLRSEDTAVYYCARGNPWELRLDYWGQGTLVTVSSGGGGSGGGGSGGGGSGGGGSDIQMTQSPSSLSASVGDRVTITCQASQDISNYLNWYQQKPGKAPKLLIYAASSLQSGVPSRFSGSGSGTDFTLTISSLQPEDFATYYCQQYYSYPFTFGPGTKVDIKGGGGSGGGGSQVQLVQSGAEVKKPGASVKVSCKASGYTFTRYTMHWVRQAPGQGLEWMGYINPSRGYTNYNQKFKDRVTLTTDKSSSTAYMELSSLRSEDTAVYYCARYYDDHYSLDYWGQGTLVTVSSASTKGPSVFPLAPSSKSTSGGTAALGCLVKDYFPEPVTVSWNSGALTSGVHTFPAVLQSSGLYSLSSVVTVPSSSLGTQTYICNVNHKPSNTKVDKRVEPKSCDKTHTCPPCPAPELLGGPSVFLFPPKPKDTLMISRTPEVTCVVVDVSHEDPEVKFNWYVDGVEVHNAKTKPREEQYQSTYRVVSVLTVLHQDWLNGKEYKCKVSNKALPAPIEKTISKAKGQPREPQVCTLPPSREEMTKNQVSLSCAVKGFYPSDIAVEWESNGQPENNYKTTPPVLDSDGSFFLVSKLTVDKSRWQQGNVFSCSVMHEALHNRFTQKSLSLSPGK
light: DIQMTQSPSSLSASVGDRVTITCSASSSVSYMNWYQQKPGKAPKRLIYDTSKLASGVPSRFSGSGSGTDFTLTISSLQPEDFATYYCQQWSSNPFTFGQGTKLEIKRTVAAPSVFIFPPSDEQLKSGTASVVCLLNNFYPREAKVQWKVDNALQSGNSQESVTEQDSKDSTYSLSSTLTLSKADYEKHKVYACEVTHQGLSSPVTKSFNRGEC
With B1, the Kd in assay [1] was determined as 26.1 nM; in assay [2], 5.34 nM; in assay [3], 2.72 nM.
